Source: article PMC11295067

What was measured:
[1] = target: human Gq heterotrimer (human) (UniProt P50148)
[2] = target: human Gi heterotrimer (human) (UniProt P63096)
Chain of human Gi heterotrimer (human) (P63096 whole entry, looked up, one chain of several): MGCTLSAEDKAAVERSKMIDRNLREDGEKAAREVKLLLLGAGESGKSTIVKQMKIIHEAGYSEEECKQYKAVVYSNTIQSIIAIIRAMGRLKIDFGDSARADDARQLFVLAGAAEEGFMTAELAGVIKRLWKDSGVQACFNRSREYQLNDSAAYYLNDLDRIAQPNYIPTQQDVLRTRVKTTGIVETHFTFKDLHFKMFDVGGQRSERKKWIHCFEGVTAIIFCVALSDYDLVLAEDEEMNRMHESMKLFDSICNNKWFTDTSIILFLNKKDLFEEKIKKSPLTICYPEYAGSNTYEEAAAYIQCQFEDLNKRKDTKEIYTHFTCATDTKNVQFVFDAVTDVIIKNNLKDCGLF

Chain of human Gq heterotrimer (human) (P50148 whole entry, looked up, one chain of several): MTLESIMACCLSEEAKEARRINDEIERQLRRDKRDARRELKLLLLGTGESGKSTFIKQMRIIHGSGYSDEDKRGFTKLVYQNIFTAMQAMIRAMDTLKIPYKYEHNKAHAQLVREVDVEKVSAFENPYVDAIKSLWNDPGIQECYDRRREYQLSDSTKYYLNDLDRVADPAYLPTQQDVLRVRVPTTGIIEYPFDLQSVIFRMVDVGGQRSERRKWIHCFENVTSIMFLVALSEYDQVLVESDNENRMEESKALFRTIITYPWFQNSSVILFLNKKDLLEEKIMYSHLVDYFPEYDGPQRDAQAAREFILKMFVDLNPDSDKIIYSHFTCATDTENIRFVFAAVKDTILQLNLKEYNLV

GTPase-Glo assay: GTP depletion by Gq heterotrimer with JSR1/9-cis retinal, after illumination [1]: 44%
GTPase-Glo assay: GTP depletion by Gq heterotrimer with JSR1/9-cis retinal, without illumination [1]: 7%
GTPase-Glo assay: GTP depletion by Gi heterotrimer with JSR1/9-cis retinal, after illumination [2]: 92%
GTPase-Glo assay: GTP depletion by Gi heterotrimer with JSR1/9-cis retinal, without illumination [2]: 57%
Substance: Jumping Spider Rhodopsin-1 (JSR1) reconstituted with 9-cis retinal (receptor)
